{"source": "patent EP4414386A1", "about": "(dated 2024)", "data": [{"target": "T1, PSMA antigen (UniProt Q04609 1-750, limits assumed)", "T1 construct": "whole, on cells; On PC3-PIP cells in FACS and cell ELISA; in SPR captured on the CM5 chip from the cellular lysate of PC3-PIP by the 7E11 MAb; also called the antigen", "T1 sequence (Q04609 whole entry)": "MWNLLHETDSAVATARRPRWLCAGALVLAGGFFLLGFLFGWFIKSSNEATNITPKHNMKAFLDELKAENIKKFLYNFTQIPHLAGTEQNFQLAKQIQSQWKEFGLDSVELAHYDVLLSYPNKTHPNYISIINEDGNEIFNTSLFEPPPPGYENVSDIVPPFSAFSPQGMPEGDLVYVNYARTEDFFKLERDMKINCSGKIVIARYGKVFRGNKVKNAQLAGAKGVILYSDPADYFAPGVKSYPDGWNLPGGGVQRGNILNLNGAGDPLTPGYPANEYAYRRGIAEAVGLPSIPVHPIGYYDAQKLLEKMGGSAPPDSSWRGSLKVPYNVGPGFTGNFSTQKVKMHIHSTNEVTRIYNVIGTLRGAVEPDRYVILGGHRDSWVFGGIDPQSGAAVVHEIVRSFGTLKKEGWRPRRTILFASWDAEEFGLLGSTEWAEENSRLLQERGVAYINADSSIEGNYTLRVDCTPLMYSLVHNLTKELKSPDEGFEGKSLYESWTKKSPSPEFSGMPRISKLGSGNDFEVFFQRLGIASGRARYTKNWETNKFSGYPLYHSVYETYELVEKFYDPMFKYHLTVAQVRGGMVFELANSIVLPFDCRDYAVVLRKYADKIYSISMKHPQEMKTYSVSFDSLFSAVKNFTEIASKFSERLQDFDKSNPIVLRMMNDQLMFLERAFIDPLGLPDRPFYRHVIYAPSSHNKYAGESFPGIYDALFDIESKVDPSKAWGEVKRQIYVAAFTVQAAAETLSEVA", "experiment": "SPR Biacore T200, single-cycle kinetics; PSMA captured from PC3-PIP lysate by 7E11 on CM5 chip", "units": {"Kd": "nM", "RU max": "RU"}, "values": [{"binder": "scFv D2B produced in prokaryotic system (bacteria) (scFv, also called ScFvD2B from bacteria; scFv produced in bacteria; not shown: Myc tag) scFv: EVKLQESGPGLVKPSQSLSLTCSVTGYSITSGYYWNWIRQFPGNKLEWMGSISFDGNNNYNPSLRNRISITRDTSKNQFFLKLNSVTTEDTATYYCAREGDYYGSSFFTYWGQGTLVTVSSGGGGSGGGGSGGGGSALDIVMTQSPASLSASVGETVTLTCGASENIYGALNWYQRKQGKSPQLLIYGATNLADGMSSRFSGSGSGRQYSLKISSLHPDDVATYYCQNVFRTYTFGGGTKLEIKRAAAHHHHHH", "Kd": 2.3, "RU max": 34}, {"binder": "scFv D2B produced in eukaryotic mammalian cells (scFv, also called ScFvD2B from eukaryote; scFv produced in eukaryotic mammalian cells) scFv: EVKLQESGPGLVKPSQSLSLTCSVTGYSITSGYYWNWIRQFPGNKLEWMGSISFDGNNNYNPSLRNRISITRDTSKNQFFLKLNSVTTEDTATYYCAREGDYYGSSFFTYWGQGTLVTVSSGGGGSGGGGSGGGGSALDIVMTQSPASLSASVGETVTLTCGASENIYGALNWYQRKQGKSPQLLIYGATNLADGMSSRFSGSGSGRQYSLKISSLHPDDVATYYCQNVFRTYTFGGGTKLEIKRAAAHHHHHH", "Kd": 2.8, "RU max": 68}, {"binder": "scFv D2B produced by synthesis (folded scFv D2B compound 27) (scFv, pyroglutamic acid (<E) at position 1, Fully chemically synthesised, 254 residues, two disulfide bonds (C22-C96 and C161-C226); segment 5 is C226-H254; also called ScFvD2B of synthesis; scFv produced by synthesis) scFv: EVKLQESGPGLVKPSQSLSLTCSVTGYSITSGYYWNWIRQFPGNKLEWMGSISFDGNNNYNPSLRNRISITRDTSKNQFFLKLNSVTTEDTATYYCAREGDYYGSSFFTYWGQGTLVTVSSGGGGSGGGGSGGGGSALDIVMTQSPASLSASVGETVTLTCGASENIYGALNWYQRKQGKSPQLLIYGATNLADGMSSRFSGSGSGRQYSLKISSLHPDDVATYYCQNVFRTYTFGGGTKLEIKRAAAHHHHHH", "Kd": 1.9, "RU max": 34}]}]}
